Source: publication PMC4683259

Key:
[1] = molecular target: KV10.1 voltage-gated potassium channel, full-length form (E100) (human) (UniProt O95259)
[2] = molecular target: KV10.1 voltage-gated potassium channel, full-length form (E100) (human) (UniProt O95259); remark: listed apart in the source
[3] = molecular target: KV10.1 voltage-gated potassium channel, full-length form (E100) (human) (UniProt O95259); remark: listed apart in the source

UniProt O95259, sequence (O95259 whole entry): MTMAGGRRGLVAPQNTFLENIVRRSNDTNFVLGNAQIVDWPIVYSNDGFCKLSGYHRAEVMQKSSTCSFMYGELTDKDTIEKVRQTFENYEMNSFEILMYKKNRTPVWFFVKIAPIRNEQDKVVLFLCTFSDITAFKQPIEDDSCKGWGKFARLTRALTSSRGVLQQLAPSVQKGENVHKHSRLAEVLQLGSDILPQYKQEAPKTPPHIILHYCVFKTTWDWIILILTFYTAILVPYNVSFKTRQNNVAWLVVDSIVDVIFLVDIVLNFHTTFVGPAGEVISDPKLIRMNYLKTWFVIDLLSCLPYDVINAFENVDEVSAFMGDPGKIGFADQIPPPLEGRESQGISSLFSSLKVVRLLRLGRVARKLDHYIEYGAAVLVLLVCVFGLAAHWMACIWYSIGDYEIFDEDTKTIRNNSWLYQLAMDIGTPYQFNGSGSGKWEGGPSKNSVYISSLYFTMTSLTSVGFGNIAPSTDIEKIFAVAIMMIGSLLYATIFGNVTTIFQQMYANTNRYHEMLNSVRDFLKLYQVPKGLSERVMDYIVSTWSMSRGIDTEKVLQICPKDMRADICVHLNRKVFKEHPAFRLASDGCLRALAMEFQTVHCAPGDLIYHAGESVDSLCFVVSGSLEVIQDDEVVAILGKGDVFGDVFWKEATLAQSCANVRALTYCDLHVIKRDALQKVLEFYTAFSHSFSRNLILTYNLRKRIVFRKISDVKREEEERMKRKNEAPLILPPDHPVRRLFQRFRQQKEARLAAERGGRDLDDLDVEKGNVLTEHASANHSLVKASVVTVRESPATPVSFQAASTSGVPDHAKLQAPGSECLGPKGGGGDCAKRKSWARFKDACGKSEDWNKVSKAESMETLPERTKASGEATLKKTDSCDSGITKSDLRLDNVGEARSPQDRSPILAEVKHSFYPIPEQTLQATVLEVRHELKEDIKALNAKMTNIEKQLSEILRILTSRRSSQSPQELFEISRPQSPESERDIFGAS

E70mVenus (KV10.1 splice variant E70 fused to mVenus) (natural protein)
reduction of KV10.1 current, two-electrode voltage clamp, Xenopus oocytes co-injected with E70 and KV10.1 cRNA at a 1:10 ratio (E70 from pSGEM, no mVenus) [1]: 60% | reduction of KV10.1 current, whole-cell patch clamp, HEK293 cells stably expressing KV10.1 and transfected with E70mVenus (control mVenus alone) [2]: 53.8%

E65^L405YmVenus (TCC-defective E65 fused to mVenus) (natural protein)
reduction of KV10.1 current amplitude, whole-cell patch clamp, HEK-KV10.1 cells transfected with E65^L405YmVenus (not statistically significant) [3]: 20.8%

E65mVenus (KV10.1 splice variant E65 fused to mVenus) (natural protein)
reduction of KV10.1 current, two-electrode voltage clamp, Xenopus oocytes co-injected with E65 and KV10.1 cRNA at a 1:10 ratio (E65 from pSGEM, no mVenus) [1]: 85% | reduction of KV10.1 current, whole-cell patch clamp, HEK293 cells stably expressing KV10.1 and transfected with E65mVenus (control mVenus alone) [2]: 41.7%

E70^L556YmVenus (TCC-defective E70 fused to mVenus) (natural protein)
reduction of KV10.1 current density at +80 mV, whole-cell patch clamp, HEK-KV10.1 cells transfected with E70^L556YmVenus [3]: 45.3%
